# Experimental data from IntAct's records for PubMed 15141091.
# B1: Homeobox protein SIX1 (Mus musculus), Q62231 (parent)
# chain: MSMLPSFGFTQEQVACVCEVLQQGGNLERLGRFLWSLPACDHLHKNESVLKAKAVVAFHRGNFRELYKILESHQFSPHNHPKLQQLWLKAHYVEAEKLRGRPLGAVGKYRVRRKFPLPRTIWDGEETSYCFKEKSRGVLREWYAHNPYPSPREKRELAEATGLTTTQVSNWFKNRRQRDRAAEAKERENTENNNSSSNKQNQLSPLEGGKPLMSSSEEEFSPPQSPDQNSVLLLQSNMGHARSSNYSLPGLTASQPSHGLQAHQHQLQDSLLGPLTSSLVDLGS
# partner: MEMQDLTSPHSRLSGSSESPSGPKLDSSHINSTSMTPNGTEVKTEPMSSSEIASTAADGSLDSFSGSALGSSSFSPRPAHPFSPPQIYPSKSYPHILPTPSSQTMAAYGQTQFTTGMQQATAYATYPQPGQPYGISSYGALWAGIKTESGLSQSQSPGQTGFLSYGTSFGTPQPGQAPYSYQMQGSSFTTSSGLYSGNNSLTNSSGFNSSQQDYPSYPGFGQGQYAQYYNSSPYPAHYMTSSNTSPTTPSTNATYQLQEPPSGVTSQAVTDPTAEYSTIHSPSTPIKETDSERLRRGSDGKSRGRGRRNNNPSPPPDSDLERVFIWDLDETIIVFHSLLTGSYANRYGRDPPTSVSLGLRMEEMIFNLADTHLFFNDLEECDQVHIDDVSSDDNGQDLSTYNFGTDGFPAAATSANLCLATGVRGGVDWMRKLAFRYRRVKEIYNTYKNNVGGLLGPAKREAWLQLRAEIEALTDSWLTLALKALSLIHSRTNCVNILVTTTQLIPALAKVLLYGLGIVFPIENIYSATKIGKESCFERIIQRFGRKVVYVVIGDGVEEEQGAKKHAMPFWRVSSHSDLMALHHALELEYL
# Variants of: B1
# Conditions: with eya1_mouse Eya1, P97767
row,Variant,effect of a mutation on the interaction
1,MSMLPSFGFTQEQVACVCEVLQQGGNLERLGRFLWSLPACDHLHKNESVLKAKAVVAFHRGNFRELYKILESHQFSPHNHPKLQQLWLKAHYVEAEKLRGRPLGAVGKYRVRRKFPLPRTIWDGEETSCCFKEKSRGVLREWYAHNPYPSPREKRELAEATGLTTTQVSNWFKNRRQRDRAAEAKERENTENNNSSSNKQNQLSPLEGGKPLMSSSEEEFSPPQSPDQNSVLLLQSNMGHARSSNYSLPGLTASQPSHGLQAHQHQLQDSLLGPLTSSLVDLGS [Y129C],decreasing interaction
2,MSMLPSFGFTQEQVACVCEVLQQGGNLERLGRFLWSLPACDHLHKNESVLKAKAVVAFHRGNFRELYKILESHQFSPHNHPKLQQLWLKAHYVEAEKLRGRPLGAVGKYWVRRKFPLPRTIWDGEETSYCFKEKSRGVLREWYAHNPYPSPREKRELAEATGLTTTQVSNWFKNRRQRDRAAEAKERENTENNNSSSNKQNQLSPLEGGKPLMSSSEEEFSPPQSPDQNSVLLLQSNMGHARSSNYSLPGLTASQPSHGLQAHQHQLQDSLLGPLTSSLVDLGS [R110W],decreasing interaction
